Assay results as given in US11618906B2, “Hydroxylation techniques” (HYPHA DISCOVERY LTD., priority 2018, dated 2023).

Experiments:
Assay type in all cases: biochemical
[1] = Metabolism of epothilone B by P450 aluC09 and mutants; details: percent of substrate being converted; 0.125 mg/ml, 27° C., 16-20 hours; [CYP] per enzyme as in Table 8
How it was run: (§1)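 Biotransformation: CYP aluC09 mutant + ferredoxin aluF03 + reductase SCF15A, 0.125 mg/ml substrate, KPi 50 mM pH 7.4, MgCl2 5 mM, G6P/NADP/G6PDH recycling; 27° C, 16-20 h shaking; MeCN quench, UPLC-MS conversion.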

[2] = O-demethylation of indomethacin catalysed by cytochrome P450 aluC09 and mutants; details: % by UV peak area at 275 nm; 0.125 mg/ml substrate, 27° C., 16-20 hours
How it was run: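 Lyophilised CYP450aluC09 mutants with ferredoxin aluF03 and reductase SCF15A, 0.125 mg/ml substrate, 50 mM potassium phosphate pH 7.4, 5 mM MgCl2, G6P/G6PDH/NADP recycling. Shaken 16-20 h at 27° C. Acetonitrile-quenched, conversion measured by UPLC-MS.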

[3] = Metabolism of 4-pyrrolidylacetophenone by P450 aluC09 and mutants; details: percent of substrate being converted; 0.125 mg/ml, 27° C., 16-20 hours; [CYP] per enzyme as in Table 8
How it was run: as §1

[4] = Metabolism of ruxolitinib by P450 aluC09 and mutants; details: percent of substrate being converted; 0.125 mg/ml, 27° C., 16-20 hours; [CYP] per enzyme as in Table 8
How it was run: as §1

[5] = Metabolism of bosentan by P450 aluC09 and mutants; details: percent of substrate being converted; 0.125 mg/ml, 27° C., 16-20 hours; [CYP] per enzyme as in Table 8
How it was run: as §1

[6] = Metabolism of tivantinib by P450 aluC09 and mutants; details: percent of substrate being converted; 0.125 mg/ml, 27° C., 16-20 hours; [CYP] per enzyme as in Table 8
How it was run: as §1

[7] = Metabolism of ritonavir by P450 aluC09 and mutants; details: percent of substrate being converted; 0.125 mg/ml, 27° C., 16-20 hours; [CYP] per enzyme as in Table 8
How it was run: as §1

[8] = Hydroxylation / de-N-ethylation of napropamide catalysed by cytochrome P450 aluC09 and mutants; details: for Desethyl Napropamide (1.62 min) / Desethyl-hydroxy-Napropamide (1.41 min) / Hydroxy-Napropamide (1) (1.53 min) / Hydroxy-Napropamide (2), (1.52 min) / M-2Da (unidentified) (1.89 min) / Napropamide (substrate): % by UV peak area at 275 nm, 0.125 mg/ml substrate, 27° C., 16-20 hours; for Hydroxylated Ratio 2:1: napropamide, ratio of UV peak areas
How it was run: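 Conversion of napropamide (0.125 mg/ml) to hydroxylated and de-ethylated metabolites was measured by UPLC-MS after acetonitrile extraction. Reactions ran 16-20 h at 27° C in pH 7.4 potassium phosphate (50 mM) with 5 mM MgCl2, 1 mM NADP, 5 mM G6P and 2 UN/ml G6PDH. Enzymes were lyophilised P450 aluC09 variants, ferredoxin aluF03 and ferredoxin reductase SCF15A.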

[9] = Metabolism of valsartan by P450 aluC09 and mutants; details: percent of substrate being converted; 0.125 mg/ml, 27° C., 16-20 hours; [CYP] per enzyme as in Table 8
How it was run: as §1

[10] = Metabolism of celecoxib by P450 aluC09 and mutants; details: percent of substrate being converted; 0.125 mg/ml, 27° C., 16-20 hours; [CYP] per enzyme as in Table 8
How it was run: as §1

[11] = Hydroxylation of aceclofenac catalysed by cytochrome P450 aluC09 and mutants; details: for Aceclofenac (Substrate) (1.80 mins) / Dihydroxy-Aceclofenac (1.42 mins) / Hydroxy-Aceclofenac (1) (1.64 min) / Hydroxy-Aceclofenac (2) (1.60 min): % by UV peak area at 275 nm, 0.125 mg/ml substrate, 27° C., 16-20 hours; for Hydroxylated Ratio 2:1: aceclofenac, ratio of UV peak areas at 275 nm
How it was run: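 Conversion was assessed by UPLC-MS (UV and MS detection) after acetonitrile extraction of reactions run 16-20 h at 27° C, shaking. Reactions contained substrate at 0.125 mg/ml, P450 mutant plus ferredoxin and reductase partners, 1 mM NADP with glucose-6-phosphate regeneration, in phosphate buffer pH 7.4.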

[12] = Metabolism of buparvaquone by P450 aluC09 and mutants; details: percent of substrate being converted; 0.125 mg/ml, 27° C., 16-20 hours; [CYP] per enzyme as in Table 8
How it was run: as §1

[13] = Metabolism of tofacitinib by P450 aluC09 and mutants; details: percent of substrate being converted; 0.125 mg/ml, 27° C., 16-20 hours; [CYP] per enzyme as in Table 8
How it was run: as §1

[14] = Metabolism of BIRB796 by P450 aluC09 and mutants; details: percent of substrate being converted; 0.125 mg/ml, 27° C., 16-20 hours; [CYP] per enzyme as in Table 8
How it was run: as §1

[15] = Hydroxylation of diclofenac catalysed by cytochrome P450 aluC09 and mutants (UPLC-PDA-MS); details: for 4′,5-dihydroxy-diclofenac 1.38 mins / 4′-hydroxy-diclofenac (1) 1.62 mins / 5-hydroxy-diclofenac (2) 1.58 mins / Diclofenac (Substrate) 1.81 mins: % by UV peak area at 275 nm, 0.125 mg/ml substrate, 27° C., 16-20 hours; for Hydroxylated Ratio hydroxy 1:hydroxy 2: diclofenac, ratio of UV peak areas at 275nm
How it was run: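 Lyophilised CYP450aluC09 or mutants, with ferredoxin aluF03 and reductase SCF15A, incubated 16-20 hours at 27° C with 0.125 mg/ml diclofenac in 50 mM potassium phosphate pH 7.4, 5 mM MgCl2, and G6P/NADP/G6PDH regeneration. Acetonitrile-extracted; conversion by UPLC-PDA-MS against authentic hydroxylated standards.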

[16] = Hydroxylation of flufenamic acid catalysed by cytochrome P450 aluC09 and mutants; details: for Flufenamic Acid (Substrate) 1.93 mins / Hydroxy-Flufenamic Acid (1) 1.69 mins / Hydroxy-Flufenamic Acid (2) 1.65 mins: % by UV peak area at 275 nm, 0.125 mg/ml substrate, 27° C., 16-20 hours; for Hydroxylated Ratio 1:2: flufenamic acid, ratio of UV peak areas at 275 nm
How it was run: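 Lyophilised CYP450aluC09 mutants with ferredoxin aluF03 and reductase SCF15A, in 50 mM potassium phosphate pH 7.4, 5 mM MgCl2, 0.125 mg/ml flufenamic acid, G6P/NADP/G6PDH NADPH regeneration. Shaken 16-20 h at 27° C; acetonitrile-quenched, conversion to two hydroxy products by UPLC-MS.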

B1: aluC09M37: cytochrome P450 aluC09 mutant T291W; amino acid sequence SEQ ID NO: 60 (protein, listed as Amycolatopsis lurida)
chain: MTDVEETTATLPLARKCPFSPPPEYERLRRESPVSRVGLPSGQTAWALTRLEDIREMLSSPHFSSDRQSPSFPLMVARQIRREDKPFRPSLIAMDPPEHSRARRDVVGEFTVKRMKALQPRIQQIVDEHLDALLAGPKPADLVQALSLPVPSLVICELLGVPYSDHEFFQSCSSRMLSREVTAEERMTAFEQLENYLDELVTKKEANATEDDLLGRQILKQRETGEADHGELVGLAFLLLIAGHETTANMISLGTVTLLENPDQLAKIKADPGKTLAAIEELLRVFTIAEWATSRFATADVEIGGTLIRAGEGVVGLSNAGNHDPDGFENPDTFDIERGARHHVAFGFGVHQCLGQNLARLELQIVFDTLFRRVPGLRIAVPVDELPFKHDSTIYGLHALPVTW
In the case of B1, the “% conversions (avg) Epothilone B” value [1] is reported as 50.2%, the “Indomethacin (1.74 mins)” value [2] is reported as 89.0% and the “O-demethyl-Indomethacin (1.52 mins)” value [2] is reported as 11.0%. The “% conversions (avg) 4-pyrrolidylacetophenone” value [3] was 7.3%, the “% conversions (avg) Ruxolitinib” value [4] was 34.2% and the “% conversions (avg) Bosentan” value [5] was 98.6%. The “% conversions (avg) Tivantinib” value [6] was 31%, the “% conversions (avg) Ritonavir” value [7] was 64.1% and the “Desethyl Napropamide (1.62 min)” value [8] was 40.1%. For the same molecule, the “Desethyl-hydroxy-Napropamide (1.41 min)” value [8] was 3.3%, the “Hydroxy-Napropamide (1) (1.53 min)” value [8] was 1.6% and the “Hydroxy-Napropamide (2), (1.52 min)” value [8] was 3.3%. For the same molecule, the “M-2Da (unidentified) (1.89 min)” value [8] was 6.0%, the “Napropamide (substrate)” value [8] was 47.3% and the “Hydroxylated Ratio 2:1” value [8] was 2.1. The “% conversions (avg) Valsartan” value [9] was 41%, the “% conversions (avg) Celecoxib” value [10] was 7.2% and the “Aceclofenac (Substrate) (1.80 mins)” value [11] was 4.2%. For the same molecule, the “Dihydroxy-Aceclofenac (1.42 mins)” value [11] was 56.0%, the “Hydroxy-Aceclofenac (1) (1.64 min)” value [11] was 4.5% and the “Hydroxy-Aceclofenac (2) (1.60 min)” value [11] was 35.3%. The “Hydroxylated Ratio 2:1” value [11] was 7.8, the “% conversions (avg) Buparvaquone” value [12] was 10.5% and the “% conversions (avg) Tofacitinib” value [13] was 0.9%. The “% conversions (avg) BIRB796” value [14] was 10%, the “4′,5-dihydroxy-diclofenac 1.38 mins” value [15] was 1.9% and the “4′-hydroxy-diclofenac (1) 1.62 mins” value [15] was 31.4%. For the same molecule, the “5-hydroxy-diclofenac (2) 1.58 mins” value [15] was 15.9%, the “Diclofenac (Substrate) 1.81 mins” value [15] was 51.8% and the “Hydroxylated Ratio hydroxy 1:hydroxy 2” value [15] was 2.0. The “Flufenamic Acid (Substrate) 1.93 mins” value [16] was 91.3%, the “Hydroxy-Flufenamic Acid (1) 1.69 mins” value [16] was 6.4% and the “Hydroxy-Flufenamic Acid (2) 1.65 mins” value [16] was 2.2%. The “Hydroxylated Ratio 1:2” value [16] was 2.9.

B2: aluC09M40: cytochrome P450 aluC09 mutant T291R; amino acid sequence SEQ ID NO: 72 (protein, listed as Amycolatopsis lurida)
chain: MTDVEETTATLPLARKCPFSPPPEYERLRRESPVSRVGLPSGQTAWALTRLEDIREMLSSPHFSSDRQSPSFPLMVARQIRREDKPFRPSLIAMDPPEHSRARRDVVGEFTVKRMKALQPRIQQIVDEHLDALLAGPKPADLVQALSLPVPSLVICELLGVPYSDHEFFQSCSSRMLSREVTAEERMTAFEQLENYLDELVTKKEANATEDDLLGRQILKQRETGEADHGELVGLAFLLLIAGHETTANMISLGTVTLLENPDQLAKIKADPGKTLAAIEELLRVFTIAERATSRFATADVEIGGTLIRAGEGVVGLSNAGNHDPDGFENPDTFDIERGARHHVAFGFGVHQCLGQNLARLELQIVFDTLFRRVPGLRIAVPVDELPFKHDSTIYGLHALPVTW
In the case of B2, the “% conversions (avg) Epothilone B” value [1] is reported as 2.4%, the “Indomethacin (1.74 mins)” value [2] is reported as 88.8% and the “O-demethyl-Indomethacin (1.52 mins)” value [2] is reported as 11.2%. The “% conversions (avg) 4-pyrrolidylacetophenone” value [3] was 1.7%, the “% conversions (avg) Ruxolitinib” value [4] was 5.2% and the “% conversions (avg) Bosentan” value [5] was 76.5%. For the same molecule, the “% conversions (avg) Tivantinib” value [6] was 5.3%, the “% conversions (avg) Ritonavir” value [7] was 53.4% and the “Desethyl Napropamide (1.62 min)” value [8] was 12.9%. The “Desethyl-hydroxy-Napropamide (1.41 min)” value [8] was 0.4%, the “Hydroxy-Napropamide (1) (1.53 min)” value [8] was 2.3% and the “Hydroxy-Napropamide (2), (1.52 min)” value [8] was 1.8%. The “M-2Da (unidentified) (1.89 min)” value [8] was 2.4%, the “Napropamide (substrate)” value [8] was 80.6% and the “Hydroxylated Ratio 2:1” value [8] was 0.8. The “% conversions (avg) Valsartan” value [9] was 7.3%, the “% conversions (avg) Celecoxib” value [10] was 0% and the “Aceclofenac (Substrate) (1.80 mins)” value [11] was 46.3%. The “Dihydroxy-Aceclofenac (1.42 mins)” value [11] was 12.7%, the “Hydroxy-Aceclofenac (1) (1.64 min)” value [11] was 19.7% and the “Hydroxy-Aceclofenac (2) (1.60 min)” value [11] was 21.4%. The “Hydroxylated Ratio 2:1” value [11] was 1.1, the “% conversions (avg) Buparvaquone” value [12] was 0% and the “% conversions (avg) Tofacitinib” value [13] was 0.4%. For the same molecule, the “% conversions (avg) BIRB796” value [14] was 0%, the “4′,5-dihydroxy-diclofenac 1.38 mins” value [15] was 2.2% and the “4′-hydroxy-diclofenac (1) 1.62 mins” value [15] was 35.7%. The “5-hydroxy-diclofenac (2) 1.58 mins” value [15] was 14.3%, the “Diclofenac (Substrate) 1.81 mins” value [15] was 48.8% and the “Hydroxylated Ratio hydroxy 1:hydroxy 2” value [15] was 2.5. The “Flufenamic Acid (Substrate) 1.93 mins” value [16] was 94.8%, the “Hydroxy-Flufenamic Acid (1) 1.69 mins” value [16] was 4.4% and the “Hydroxy-Flufenamic Acid (2) 1.65 mins” value [16] was 0.9%. The “Hydroxylated Ratio 1:2” value [16] was 4.9.
